Measured values reported in the supplement of paper PMC10567573.
± gives the standard deviation.

Assay: protein stability index of a GFP-peptide fusion (GPS, HEK-293T) (PSI 1-6); higher = more stable
[1] = treatment: DMSO, c terminus: a fixed tail appended
[2] = treatment: MLN4924 1 uM, 8 h, c terminus: a fixed tail appended
[3] = treatment: DMSO, c terminus: native
[4] = treatment: MLN4924 1 uM, 8 h, c terminus: native
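Further: 24-mer peptide tiles fused after GFP, lentivirally expressed, FACS-sorted into six equal bins by GFP/DsRed ratio, decoded by Illumina sequencing, PSI is the read-weighted mean bin number.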

Sequence | protein stability index [1] | protein stability index [2] | protein stability index [3] | protein stability index [4]
MHTNYLSACSFTNSDMQILTASGD [GNB5] | 2.99 ± 0.22 | 3.27 ± 0.26 | – | –
MLFFLPPGQHLSDYSQLNESTTKE [FBXO34] | 2.6 ± 0.25 | 2.61 ± 0.24 | – | –
MLRQLLLAALCLAGPPAPARACQL [CCDC3] | 3.47 ± 0.045 | 2.76 ± 1.1 | – | –
MPDTFNSRSPSVEGSLWAVGTESQ [PXN] | 4.31 ± 0.16 | 4.38 ± 0.12 | – | –
MQPTLLLSLLGAVGLAAVNSMPVD [CHGB] | 2.85 ± 0.68 | 2.94 ± 0.69 | – | –
MSAALFSLDGPARGAPWPAEPAPF [CEBPD] | 2.95 ± 0.14 | 3.21 ± 0.18 | – | –
MSLRLQSSSASYGGGFGGGSCQLG [KRT13] | 2.54 ± 0.11 | 2.49 ± 0.11 | – | –
MTLAYDNGINLFDTAEVYAAGKAE [KCNAB2] | 3.54 ± 0.29 | 3.8 ± 0.34 | – | –
MTTSIRQFTSSSSIKGSSGLGGGS [KRT17] | 3.58 ± 0.11 | 3.39 ± 0.43 | – | –
MWLLVSVILISRISSVGGEAMFCD [CFHR2] | 3.35 ± 0.25 | 3.08 ± 0.52 | – | –
NAGSYIPSYTSWYPSAHQEAMQQP [DLX1] | 2.76 ± 0.16 | 2.84 ± 0.32 | – | –
NAKTEQGPTGVTMTSNPITWGQIK [CDK11A] | 4.19 ± 0.16 | 4.12 ± 0.24 | – | –
NALLSKRLLALTSSDLGCQPSRT [TMEM192] | – | – | 2.52 ± 0.72 | 2.61 ± 0.3
NATWLVNSAAHLFGYRPYDKNISP [SCD] | 2.4 ± 0.19 | 2.34 ± 0.41 | – | –
NCLGIRAFADTHSCRELLRIADKF [KLHL20] | 2.3 ± 0.36 | 2.2 ± 0.18 | – | –
NDKMAEYTNSAGVPSLNAALMHTL [GOSR1] | 3.44 ± 0.32 | 3.42 ± 0.23 | – | –
NDLWPTMENLLQATKSHVDKVIMK [DYNC2LI1] | 3.23 ± 0.25 | 3.31 ± 0.32 | – | –
NDNSPSFATPEREMRISESAASGA [PCDHGC5] | 5.21 ± 0.17 | 5.22 ± 0.089 | – | –
NESWIKSHFSRLSEEKLALDNNAS [C10orf62] | 4.11 ± 0.14 | 4.29 ± 0.24 | – | –
NGTYAGPAPAFQPFFFTGAFPFNM [ANKRD40] | 2.32 ± 1.2 | 2.51 ± 0.5 | – | –
NILFYVVGLRNTLTRIRKWIEHSK [GLT8D2] | 2.59 ± 0.18 | 2.76 ± 0.46 | – | –
NILVTSGGTVKLADFGLARIYSYQ [CDK4] | 2.45 ± 0.81 | 2.13 ± 0.37 | – | –

Sequence | protein stability index [1] | protein stability index [2] | protein stability index [3] | protein stability index [4]
NIRQKVKELVEFAQDDDRLREERK [CLINT1] | 4.55 ± 0.17 | 5.01 ± 0.19 | – | –
NKTGVSPYSKTLVLQTSEGKALQQ [TRIM9] | 4.19 ± 0.14 | 4.22 ± 0.073 | – | –
NLPFWVKEKANSLKNEIQEVEELD [SPATS1] | 4.7 ± 0.32 | 4.82 ± 0.083 | – | –
NMEKYNFLGISIVGQSNERGDGGI [DVL3] | 3.18 ± 0.28 | 3.16 ± 0.82 | – | –
NQEDAIHFHRTLKEACDQHGPDLY [CPOX] | 4.33 ± 0.21 | 4.47 ± 0.15 | – | –
NQMDKARRHPQGAWKELDRNYLNY [CHGB] | 2.77 ± 0.32 | 2.84 ± 0.19 | – | –
NSDPEVVNVDNLLAAAVVQEHSNS [C18orf25] | 5.19 ± 0.35 | 5.33 ± 0.2 | – | –
NSLQSYQLSPNKHFSLRVQSRANG [PCDHGA10] | 3.41 ± 0.077 | 3.64 ± 0.42 | – | –
NSSNSDIVHVEKEEVPEGMEEAAV [BCL2L13] | 5.6 ± 0.14 | 5.61 ± 0.28 | – | –
NTLVTKTMEDTLMTVKQYEAARLE [ARFIP2] | 4.19 ± 0.3 | 4.55 ± 0.23 | – | –
NTRNYEGQTPLAVSISISGSSRPC [ASB7] | 3.23 ± 0.2 | 3.5 ± 0.27 | – | –
NVAATGISQYEDDLPPPPADPVLD [APBB1IP] | 5.36 ± 0.18 | 5.45 ± 0.19 | – | –
NVFKELQIMQGLEHPFLVNLWYSF [STK32A] | 2.74 ± 0.55 | 2.49 ± 0.53 | – | –
NVKSEKVYTRHGVPISVTGIAQVK [FLOT1] | 3.52 ± 0.13 | 3.65 ± 0.2 | – | –
PAAPFDKKCGRENWTVAFAPDGSY [WSB1] | 2.63 ± 0.33 | 2.86 ± 0.13 | – | –
PALSQLVNLYLGRSHFLWKEPATM [TCF25] | 3.25 ± 0.75 | 3.02 ± 0.9 | – | –
PAPNKKRKSSKLIMELTGGGQESS [MYOZ1] | 4.82 ± 0.19 | 4.73 ± 0.16 | – | –
PCFKWYTSPWSECTKTCGVGVRMR [ADAMTSL2] | 2.07 ± 0.17 | 2.33 ± 0.32 | – | –
PDEEPMHYGNIMYDRRVIRGNTYA [RSPH3] | 3.5 ± 0.27 | 3.41 ± 0.33 | – | –
PEGKRVPKRLRCWEEEEDHEKERP [FANCE] | 5.21 ± 0.25 | 5.26 ± 0.27 | – | –
PEMYILKGGYKEFFPQHPNFCEPQ [CDC25B] | 2.6 ± 0.46 | 2.84 ± 0.36 | – | –
PEPRSEVVPARLKRASAPTFDNDY [RIPK4] | 4.86 ± 0.47 | 4.63 ± 0.36 | – | –

Sequence | protein stability index [1] | protein stability index [2] | protein stability index [3] | protein stability index [4]
PFDQSGLGAEESLGLLDDYLEVAK [ATF4] | 4.28 ± 0.28 | 4.62 ± 0.24 | – | –
PFEPQALGLSPSWRLTGFSGMKG [SEPHS2] | – | – | 2.51 ± 0.53 | 2.64 ± 0.25
PFRGDEGIFEESFIEERRQGLEQF [SNX12] | 4.518 ± 0.041 | 4.42 ± 0.18 | – | –
PFWEVLVRSTETVERDNMEEDNVE [HDAC6] | 5.27 ± 0.086 | 5.27 ± 0.13 | – | –
PGAGLRRPTYTPPSIMPQKHWVYV [ZBTB22] | 2.26 ± 0.051 | 2.04 ± 0.27 | – | –
PGKKKIRWDPVRRRFIQSCPIIRI [KLHDC10] | 2.01 ± 0.29 | 2.1 ± 0.12 | – | –
PGQGGPASTPAQTAAGGQGGPGGP [NR2F2] | 5.25 ± 0.21 | 5.33 ± 0.37 | – | –
PGRLTEALCLEVRPTYFEMKNEKL [RNF180] | 4.9 ± 0.21 | 4.9 ± 0.15 | – | –
PGSGSGPGPGSGPGSGPGHGSGSH [SPAG8] | 5 ± 0.17 | 4.93 ± 0.18 | – | –
PGSTSPLETSGNPNGRYGSGYLLA [SLC6A17] | 3.44 ± 0.19 | 3.72 ± 0.33 | – | –
PGVLKVLWLTASQPCSIVDVEFLP [LPCAT4] | 3.08 ± 0.27 | 2.87 ± 0.99 | – | –
PISQEKIESERALISQCGKPVVNV [DUSP5] | 4.04 ± 0.55 | 3.91 ± 0.23 | – | –
PKNPALEAFLAQFSQLEDKFPGQS [TOR1AIP2] | 3.43 ± 0.1 | 3.64 ± 0.15 | – | –
PLAMNYLDRFLSLEPVKKSRLQLL [CCND1] | 2.23 ± 0.12 | 2.27 ± 0.14 | – | –
PLLSGVAQEVSPCGPPSLGAVLAL [MFSD9] | 2.4 ± 0.35 | 2.42 ± 0.18 | – | –
PLNRFSSVPLDPMERPMSQADLEL [CBY2] | 4.47 ± 0.18 | 4.53 ± 0.28 | – | –
PLPESRREIEELLAEAKYYLVQGL [KCTD10] | 2.56 ± 0.2 | 2.77 ± 0.4 | – | –
PMMKAAMYSVEITVEKDKVTGETR [PALM] | 4.16 ± 0.33 | 4.29 ± 0.14 | – | –
PMVRKRSVSNSTQTSSSSSQSETS [DLC1] | 5.26 ± 0.21 | 5.3 ± 0.33 | – | –
PNLNETSIVSGGYGGSGDGLIPTG [ARFIP2] | 4.18 ± 0.13 | 4.45 ± 0.095 | – | –
PNRQLWIELAPLSMPRINHGVLSA [GAN] | 2.17 ± 0.47 | 2.19 ± 0.13 | – | –
